Laboratory results as given in patent US8586056.
Where two headings read alike, the source gives them in different places.

Columns and labels:
[1] = target: 16936V1-3-55 gp160 full length Env (HIV-1 (16936 with 16055 V1-3 loops))
[2] = target: HIV-1 Env 16936 (HIV-1, isolate 16936)
[3] = target: Env of the 16055 virus (HIV-1 clade C, isolate 16055)
[4] = target: HIV-1 clade C 16055 gp120-Histag, EF117268_gp120 (HIV-1 clade C, isolate 16055); assay: Octet
[5] = target: HIV-1 clade C 16055 gp120-Histag, EF117268_gp120 (HIV-1 clade C, isolate 16055); assay: Octet (biolayer interferometry)
[6] = target: HIV-1 clade C 16055 gp140-Histag, EF117268_gp140 (HIV-1 clade C, isolate 16055); assay: ELISA on recombinant gp140
[7] = target: 16055 gp140 trimer with c-terminus trimerization domain GCN4 (HIV-1 clade C, isolate 16055); assay: ELISA on recombinant gp140
Du172 (HIV-1) [8] = target: Du172 (HIV-1)
CAP45 (HIV-1) [9] = target: CAP45 (HIV-1)
Zm197 (HIV-1) [10] = target: Zm197 (HIV-1)
[11] = target: Env of the 16055 virus (HIV-1 clade C, isolate 16055); remark: listed apart in the source
Zm135 (HIV-1) [12] = target: Zm135 (HIV-1)
DU422 (HIV-1) [13] = target: DU422 (HIV-1)
JRCSF [14] = target: JRCSF
YU2 [15] = target: YU2
[16] = target: Env of the 16055 virus (HIV-1 clade C, isolate 16055); assay: ELISA; same curves as panel 16055-2 of FIG. 3A
[17] = target: 16936-16055V123loop (HIV-1 (16936 backbone with 16055 V1, V2 and V3 loops)); assay: ELISA
[18] = target: BG505_gp120 (HIV-1 clade A, BG505); assay: ELISA on BG505 gp120
[19] = target: Env of the 16055 virus (HIV-1 clade C, isolate 16055); assay: shed gp120 capture ELISA
JRCSF [20] = assay: shed gp120 capture ELISA
Du172 (HIV-1) [21] = target: Du172 (HIV-1); remark: listed apart in the source
ZM214 (HIV-1) [22] = target: ZM214 (HIV-1)
CAP45 (HIV-1) [23] = target: CAP45 (HIV-1); remark: listed apart in the source
QH0692 (HIV-1) [24] = target: QH0692 (HIV-1)
Zm197 (HIV-1) [25] = target: Zm197 (HIV-1); remark: listed apart in the source
[26] = target: HIV-1 Env 16936 (HIV-1, isolate 16936); remark: listed apart in the source
[27] = target: Env of the 16055 virus (HIV-1 clade C, isolate 16055); remark: listed apart in the source
Zm135 (HIV-1) [28] = target: Zm135 (HIV-1); remark: listed apart in the source
[29] = target: 0013095 (EF117267) (HIV-1)
DU422 (HIV-1) [30] = target: DU422 (HIV-1); remark: listed apart in the source
JRFL (HIV-1) [31] = target: JRFL (HIV-1)
JRCSF [32] = target: JRCSF; remark: listed apart in the source
YU2 [33] = target: YU2; remark: listed apart in the source
SF162 (HIV-1) [34] = target: SF162 (HIV-1)
[35] = target: Zm109F (AY424138) (HIV-1)
0013095 gp140 = assay: ELISA on recombinant gp140
[36] = target: HIV-1 clade C 16055 gp140-Histag, EF117268_gp140 (HIV-1 clade C, isolate 16055); assay: ELISA on recombinant gp140; remark: listed apart in the source
ZM214 (HIV-1) [37] = target: ZM214 (HIV-1); remark: listed apart in the source
QH0692 (HIV-1) [38] = target: QH0692 (HIV-1); remark: listed apart in the source
JRFL (HIV-1) [39] = target: JRFL (HIV-1); remark: listed apart in the source
SF162 (HIV-1) [40] = target: SF162 (HIV-1); remark: listed apart in the source

4E10 (antibody)
neutralization IC50 [1]: 2.68 µg/mL
neutralization IC50 [2]: 3.85 µg/mL
neutralization IC50 [3]: 7.02 µg/mL

A32 (antibody)
Kd [4]: 5.2 nM
koff [4]: 8.23e-05 s⁻¹
kon [4]: 15600 M⁻¹ s⁻¹

F105 (antibody)
koff [4]: 0.00169 s⁻¹
kon [4]: 8430 M⁻¹ s⁻¹
Kd [5]: 200 nM

PG9 (antibody)
EC50 (read off the curve) [6]: 0.2 µg/mL
EC50 (read off the curve) [7]: 0.1 µg/mL
neutralization IC50 (UG037 (HIV-1)): 0.02 µg/mL
neutralization IC50 (Du172 (HIV-1) [8]): 0.24 µg/mL
neutralization IC50 (Q842 (HIV-1)): 0.02 µg/mL
neutralization IC50 (CAP45 (HIV-1) [9]): 3 ng/mL
neutralization IC50 (Zm197 (HIV-1) [10]): 0.287 µg/mL
neutralization IC50 (REJ0451 (HIV-1)): 1 ng/mL
neutralization IC50 (WIT04160 (HIV-1)): 5 ng/mL
neutralization IC50 (RW020 (HIV-1)): 0.05 µg/mL
neutralization IC50 [11]: 0.01 µg/mL
neutralization IC50 (Zm135 (HIV-1) [12]): > 25 µg/mL
neutralization IC50 (DU422 (HIV-1) [13]): 0.178 µg/mL
neutralization IC50 (MulV): > 25 µg/mL
neutralization IC50 (JRCSF [14]): 2 ng/mL
neutralization IC50 (YU2 [15]): 1.73 µg/mL
EC50 (read off the curve) [16]: 0.3 µg/mL
EC50 (read off the curve) [17]: 0.2 µg/mL
EC50 (read off the curve) [18]: 0.04 µg/mL
EC50 (read off the curve) [19]: 0.3 µg/mL
EC50 (read off the curve) (JRCSF [20]): 0.3 µg/mL
neutralization IC50 [1]: 0.03 µg/mL
neutralization IC50 [2]: > 25 µg/mL
neutralization IC50 (Bal (HIV-1)): < 0.01 µg/mL
neutralization IC50 (Du172 (HIV-1) [21]): 0.49 µg/mL
neutralization IC50 (ZM214 (HIV-1) [22]): > 25 µg/mL
neutralization IC50 (25710 (EF117271) (HIV-1)): < 0.01 µg/mL
neutralization IC50 (25925 (EF117273) (HIV-1)): 0.15 µg/mL
neutralization IC50 (PVO (HIV-1)): 9.76 µg/mL
neutralization IC50 (CAP45 (HIV-1) [23]): < 0.01 µg/mL
neutralization IC50 (6535 (AY835438) (HIV-1)): 0.6 µg/mL
neutralization IC50 (QH0692 (HIV-1) [24]): > 25 µg/mL
neutralization IC50 (Zm197 (HIV-1) [25]): 0.61 µg/mL
neutralization IC50 (virus printed '6936') [26]: > 25 µg/mL
neutralization IC50 [27]: < 0.01 µg/mL
neutralization IC50 (CAAN (AY835452) (HIV-1)): 11.9 µg/mL
neutralization IC50 (Zm135 (HIV-1) [28]): 17.6 µg/mL
neutralization IC50 (AC10 (HIV-1)): 0.05 µg/mL
neutralization IC50 [29]: < 0.01 µg/mL
neutralization IC50 (DU422 (HIV-1) [30]): 1.64 µg/mL
neutralization IC50 (JRFL (HIV-1) [31]): > 25 µg/mL
neutralization IC50 (JRCSF [32]): < 0.01 µg/mL
neutralization IC50 (YU2 [33]): < 0.01 µg/mL
neutralization IC50 (SF162 (HIV-1) [34]): > 25 µg/mL
neutralization IC50 [35]: 0.46 µg/mL
EC50 (read off the curve) (0013095 gp140): 0.9 µg/mL
EC50 (read off the curve) [36]: 0.1 µg/mL

PG16 (antibody)
EC50 (read off the curve) [6]: 0.1 µg/mL
EC50 (read off the curve) [7]: 0.08 µg/mL
neutralization IC50 (UG037 (HIV-1)): 0.01 µg/mL
neutralization IC50 (Du172 (HIV-1) [8]): 0.023 µg/mL
neutralization IC50 (Q842 (HIV-1)): 0.009 µg/mL
neutralization IC50 (CAP45 (HIV-1) [9]): 2 ng/mL
neutralization IC50 (Zm197 (HIV-1) [10]): 0.765 µg/mL
neutralization IC50 (REJ0451 (HIV-1)): 4 ng/mL
neutralization IC50 (WIT04160 (HIV-1)): 2 ng/mL
neutralization IC50 (RW020 (HIV-1)): 0.037 µg/mL
neutralization IC50 [11]: 0.01 µg/mL
neutralization IC50 (DU422 (HIV-1) [13]): 0.042 µg/mL
neutralization IC50 (MulV): > 25 µg/mL
neutralization IC50 (JRCSF [14]): 1 ng/mL
neutralization IC50 (YU2 [15]): 0.114 µg/mL
EC50 (read off the curve) [18]: 0.2 µg/mL
neutralization IC50 [1]: 0.06 µg/mL
neutralization IC50 [2]: > 25 µg/mL
neutralization IC50 [3]: < 0.01 µg/mL
neutralization IC50 (Bal (HIV-1)): < 0.01 µg/mL
neutralization IC50 (Du172 (HIV-1) [21]): 0.06 µg/mL
neutralization IC50 (ZM214 (HIV-1) [22]): > 25 µg/mL
neutralization IC50 (25710 (EF117271) (HIV-1)): < 0.01 µg/mL
neutralization IC50 (25925 (EF117273) (HIV-1)): 0.11 µg/mL
neutralization IC50 (PVO (HIV-1)): 21.9 µg/mL
neutralization IC50 (CAP45 (HIV-1) [23]): < 0.01 µg/mL
neutralization IC50 (6535 (AY835438) (HIV-1)): > 25 µg/mL
neutralization IC50 (QH0692 (HIV-1) [24]): > 25 µg/mL
neutralization IC50 (Zm197 (HIV-1) [25]): 1.68 µg/mL
neutralization IC50 (virus printed '6936') [26]: > 25 µg/mL
neutralization IC50 (CAAN (AY835452) (HIV-1)): 12.9 µg/mL
neutralization IC50 (Zm135 (HIV-1) [28]): > 25 µg/mL
neutralization IC50 (AC10 (HIV-1)): < 0.01 µg/mL
neutralization IC50 [29]: < 0.01 µg/mL
neutralization IC50 (DU422 (HIV-1) [30]): 2.34 µg/mL
neutralization IC50 (JRFL (HIV-1) [31]): > 25 µg/mL
neutralization IC50 (JRCSF [32]): < 0.01 µg/mL
neutralization IC50 (YU2 [33]): < 0.01 µg/mL
neutralization IC50 (SF162 (HIV-1) [34]): > 25 µg/mL
neutralization IC50 [35]: > 25 µg/mL
EC50 (read off the curve) [36]: 0.08 µg/mL

VRC01 (antibody)
koff [4]: 0.000294 s⁻¹
kon [4]: 4780 M⁻¹ s⁻¹
Kd [5]: 61 nM

b6 (antibody)
Kd [4]: 7.7 nM
koff [4]: 8.66e-05 s⁻¹
kon [4]: 11000 M⁻¹ s⁻¹

b12 (antibody)
neutralization IC50 (UG037 (HIV-1)): > 25 µg/mL
neutralization IC50 (Du172 (HIV-1) [8]): 0.3 µg/mL
neutralization IC50 (ZM214 (HIV-1) [37]): 13.6 µg/mL
neutralization IC50 (Q842 (HIV-1)): > 25 µg/mL
neutralization IC50 (CAP45 (HIV-1) [9]): 370 ng/mL
neutralization IC50 (QH0692 (HIV-1) [38]): 0.97 µg/mL
neutralization IC50 (Zm197 (HIV-1) [10]): > 25 µg/mL
neutralization IC50 (REJ0451 (HIV-1)): 5920 ng/mL
neutralization IC50 (WIT04160 (HIV-1)): 8580 ng/mL
neutralization IC50 (RW020 (HIV-1)): 10 µg/mL
neutralization IC50 (Zm135 (HIV-1) [12]): > 25 µg/mL
neutralization IC50 (DU422 (HIV-1) [13]): 0.464 µg/mL
neutralization IC50 (MulV): > 25 µg/mL
neutralization IC50 (JRFL (HIV-1) [39]): 0.022 µg/mL
neutralization IC50 (JRCSF [14]): 96 ng/mL
neutralization IC50 (YU2 [15]): 2.18 µg/mL
neutralization IC50 (SF162 (HIV-1) [40]): 0.07 µg/mL
koff [4]: 0.00107 s⁻¹
kon [4]: 8790 M⁻¹ s⁻¹
EC50 (read off the curve) [18]: 0.03 µg/mL
Kd [5]: 120 nM
neutralization IC50 [1]: 20.5 µg/mL
neutralization IC50 [2]: > 25 µg/mL
neutralization IC50 [3]: > 25 µg/mL
